Measurements as given in patent publication US20260070986A1 (AFFIMED, published 2026).

Assays:
[1] = target: T1, recombinant murine FcγRIV (CD16-2), biotinylated (murine, UniProt A0A0B4J1G0 21-203, biotinylated (site not stated)); assay: SPR (Biacore), 37 °C, biotin-captured murine CD16-2 as ligand, steady-state plot; left-hand column, no heading on the sheet
T1 construct: also called murine CD16-2; mouse CD16-2; not shown: biotinylation or purification tag (AviTag according to our card)
T1 sequence: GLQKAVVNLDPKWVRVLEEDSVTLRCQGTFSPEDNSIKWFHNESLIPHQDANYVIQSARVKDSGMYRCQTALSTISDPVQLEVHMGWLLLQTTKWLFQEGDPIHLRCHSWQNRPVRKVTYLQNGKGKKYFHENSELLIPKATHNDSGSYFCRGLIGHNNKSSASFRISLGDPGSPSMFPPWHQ
Protocol: (§1) FIG. 20: SPR interaction analysis of antibody binding to CD64 and murine CD16-2. […] Affinity parameters were evaluated for interaction with receptors using a Steady State Binding model.

[2] = target: T2, recombinant murine FcγRI (CD64), biotinylated (murine, UniProt P26151 25-297, limits assumed, site-directed biotinylation at AviTag); assay: SPR (Biacore), 37 °C, biotin-captured murine CD64 as ligand, steady-state plot; left-hand column, no heading on the sheet
T2 construct: also called murine CD64; mouse CD64
T2 sequence (looked up): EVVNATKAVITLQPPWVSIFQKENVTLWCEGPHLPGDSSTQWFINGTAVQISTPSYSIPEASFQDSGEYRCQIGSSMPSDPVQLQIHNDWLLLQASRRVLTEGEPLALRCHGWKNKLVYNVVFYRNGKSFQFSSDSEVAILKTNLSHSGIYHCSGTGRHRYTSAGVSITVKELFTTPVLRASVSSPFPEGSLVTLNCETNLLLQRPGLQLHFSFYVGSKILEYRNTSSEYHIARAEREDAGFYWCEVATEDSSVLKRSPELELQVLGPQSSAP
Protocol: as §1

[3] = target: T3, recombinant human FcγRIIC (CD32C), biotinylated (human, UniProt P31995 43-223, limits assumed, site-directed biotinylation at AviTag); assay: SPR (Biacore), 37 °C, biotin-captured human CD32C as ligand, steady-state plot; left-hand column, no heading on the sheet
T3 construct: also called human CD32C
T3 sequence (looked up): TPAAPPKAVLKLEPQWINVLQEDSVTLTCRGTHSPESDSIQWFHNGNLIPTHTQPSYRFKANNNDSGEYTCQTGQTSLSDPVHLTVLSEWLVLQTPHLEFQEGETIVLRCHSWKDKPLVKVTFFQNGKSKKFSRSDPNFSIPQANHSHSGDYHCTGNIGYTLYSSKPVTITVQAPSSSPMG
Protocol: (§2) FIG. 21: SPR interaction analysis of antibody binding to CD32. […] Affinity parameters were evaluated for interaction with receptors using a Steady State Binding model.

[4] = target: T4, recombinant human neonatal Fc receptor (FcRn), biotinylated (human, UniProt P55899 24-297, site-directed biotinylation at AviTag); assay: SPR (Biacore), 37 °C, pH 6.0, biotin-captured human FcRn as ligand, steady-state affinity fit
T4 construct: also called human FcRn
Protocol: Affinity parameters were evaluated for interaction with human FcRn, cynomolgus FcRn or murine FcRn using a Steady State Binding model (D-F).

[5] = target: T5, human CD16A (158F) on transfected CHO cells (cAg_34) (human, UniProt P08637 17-254); assay: flow cytometry on huCD16A-transfected CHO cells, anti-human IgG-APC detection
T5 construct: Exact cell-anchored construct not described; also called huCD16A
Protocol: To analyze binding of different antibody constructs to CHO cells transfected with human CD16A (cAg_34), relative to CD16 expression by flow cytometry, 1-2×10⁵ were resuspended in 100 μL FACS buffer (PBS (Invitrogen, cat.: 14190-169) containing 2% heat-inactivated FCS (Invitrogen, cat.: 10270-106), and 0.1% sodium azide (Roth, Karlsruhe, Germany, cat.: A1430.0100)) in round-bottom 96-well microtiter plates. After washing in FACS buffer, cells were incubated in 50 μL FACS buffer without antibodies or with titrated antibodies starting at a concentration of 100 μg/mL followed by ten 5-fold serial dilutions for 30 min on ice in the dark. After washing twice, cells were incubated with APC-conjugated goat anti-human IgG (H+L)-APC (Dianova, cat. 109-136-088) for 30 min on ice in the dark. […] After washing, binding was measured by flow cytometry and mean fluorescence intensities (MFI) of cell samples were calculated and corrected for background staining using control cells stained with secondary antibodies only.
Equilibrium dissociation constants (KD) of antibody binding were calculated by plotting MFI values and fitting a non-linear regression model for one-site binding to hyperbolic dose-response curves using GraphPad Prism.

[6] = target: T6, CD123 on CD123+ cells (EOL-1 and other CD123+ tumour or patient cells) (human, UniProt P26951 19-378); assay: flow cytometry on CD123+ EOL-1 cells, anti-human IgG-APC detection
T6 construct: whole, on cells; also called interleukin-3 receptor
Protocol: To analyze binding of CD123xCD16A antibody constructs to CD123+ EOL-1 cells, CD123− A-431 cells and CD123− Karpas-299 cells by flow cytometry, 1×10⁵ cells were resuspended in 100 μL FACS buffer in round-bottom 96-well microtiter plates. After washing in FACS buffer, cells were incubated in 100 μL FACS buffer without antibodies or with titrated antibodies starting at a concentration of 100 μg/mL followed by eight 10-fold serial dilutions for 45 min on ice in the dark. After washing twice, cells were incubated with APC-conjugated goat anti-human IgG (H+L)-APC (1/200 dilution) for 30 min on ice in the dark. After washing, binding was measured by flow cytometry and mean fluorescence intensities (MFI) of cell samples were calculated and corrected for background staining using control cells stained with secondary antibodies only.

[7] = target: T7, recombinant human FcγRIIA (CD32A), biotinylated (human, UniProt P12318 34-218, limits assumed, site-directed biotinylation at AviTag); assay: SPR (Biacore), 37 °C, biotin-captured human CD32A as ligand, steady-state plot; left-hand column, no heading on the sheet
T7 construct: also called human CD32A
T7 sequence (looked up): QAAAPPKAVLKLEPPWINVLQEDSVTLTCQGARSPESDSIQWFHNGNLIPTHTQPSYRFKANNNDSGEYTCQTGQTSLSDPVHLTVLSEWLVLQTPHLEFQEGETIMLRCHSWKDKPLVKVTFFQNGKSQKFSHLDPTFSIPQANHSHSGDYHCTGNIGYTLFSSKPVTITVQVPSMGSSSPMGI
Protocol: as §2

T4 sequence (P55899 24-297 limits assumed, form in doubt): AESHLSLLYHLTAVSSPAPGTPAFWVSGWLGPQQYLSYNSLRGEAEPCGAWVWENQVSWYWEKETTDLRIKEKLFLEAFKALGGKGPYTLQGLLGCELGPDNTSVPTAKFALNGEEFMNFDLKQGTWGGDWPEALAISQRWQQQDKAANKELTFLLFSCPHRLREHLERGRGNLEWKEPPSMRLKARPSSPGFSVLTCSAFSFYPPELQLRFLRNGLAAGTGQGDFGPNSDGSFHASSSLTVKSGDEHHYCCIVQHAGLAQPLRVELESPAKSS
T5 sequence (P08637 17-254 limits assumed): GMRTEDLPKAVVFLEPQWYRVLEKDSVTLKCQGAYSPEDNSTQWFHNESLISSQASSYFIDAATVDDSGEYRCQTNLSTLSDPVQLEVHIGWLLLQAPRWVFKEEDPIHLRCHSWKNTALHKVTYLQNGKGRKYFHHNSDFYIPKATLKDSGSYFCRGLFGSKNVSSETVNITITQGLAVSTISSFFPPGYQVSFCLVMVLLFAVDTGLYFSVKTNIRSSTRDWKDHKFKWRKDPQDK
T6 sequence (P26951 19-378): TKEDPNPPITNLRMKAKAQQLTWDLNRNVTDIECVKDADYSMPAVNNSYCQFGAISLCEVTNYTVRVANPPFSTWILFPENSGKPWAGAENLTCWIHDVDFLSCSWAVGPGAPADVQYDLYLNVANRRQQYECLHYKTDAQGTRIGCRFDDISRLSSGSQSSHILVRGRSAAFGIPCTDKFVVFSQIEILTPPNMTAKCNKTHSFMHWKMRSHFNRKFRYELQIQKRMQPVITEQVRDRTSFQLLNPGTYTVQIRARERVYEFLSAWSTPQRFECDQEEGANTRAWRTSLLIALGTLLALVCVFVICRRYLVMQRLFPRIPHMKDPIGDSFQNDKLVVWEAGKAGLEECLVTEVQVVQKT

binding result [1]: no binding
binding result [3]: no binding
Kd [4]: 364 nM
EC50 (read off the curve) [5]: ~8 nM
EC50 (read off the curve) [6]: ~0.4 nM
binding result [7]: no binding
B1: scFv-IgAb_268 (CD123-1xCD16a1) (bispecific antibody)
heavy: QVQLQQSGAEVKKPGASVKVSCKASGYTFTDYYMKWVKQSHGKSLEWMGDIIPSNGATFYNQKFKGKATLTVDRSTSTAYMELSSLRSEDTAVYYCARSHLLRASWFAYWGQGTLVTVSSASTKGPSVFPLAPSSKSTSGGTAALGCLVKDYFPEPVTVSWNSGALTSGVHTFPAVLQSSGLYSLSSVVTVPSSSLGTQTYICNVNHKPSNTKVDKKVEPKSCDKTHTCPPCPAPEFEGGPSVFLFPPKPKDTLMISRTPEVTCVVVAVSHEDPEVKFNWYVDGVEVHNAKTKPREEQYNSTYRVVSVLTVLHQDWLNGKEYKCKVSNKALPAPIEKTISKAKGQPREPQVYTLPPSREEMTKNQVSLTCLVKGFYPSDIAVEWESNGQPENNYKTTPPVLDSDGSFFLYSKLTVDKSRWQQGNVFSCSVMHEALHNHYTQKSLSLSPGGGGGSGGGGSGGGGSGGGGSGGGGSGGGGSSYELTQPLSVSVALGQTARITCGGNNIGSKSVHWYQQKPGQAPVLVIYQDKKRPSGIPERFSGSNSGNTATLTISRAQAGDEADYYCQVWDDYIVLFGCGTKLTVLGGSGGSGGSGGSGGSGGSGGSQVQLVQSGAEVKKPGASVKVSCKASGYTFTNYYMQWVRQAPGQCLEWMGIINPSGGVTSYAQKFQGRVTMTRDTSTSTVYMELSSLRSEDTAVYYCARGSAYYYDFADYWGQGTLVTVSS
light: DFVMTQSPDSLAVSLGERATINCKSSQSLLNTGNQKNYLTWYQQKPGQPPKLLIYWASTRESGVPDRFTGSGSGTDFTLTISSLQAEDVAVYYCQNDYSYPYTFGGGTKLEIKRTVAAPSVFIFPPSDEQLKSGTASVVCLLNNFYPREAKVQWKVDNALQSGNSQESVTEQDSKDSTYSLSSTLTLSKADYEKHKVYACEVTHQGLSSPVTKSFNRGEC
notes: also called AFM28; CD123xCD16A scFv-IgAb_268
binding result [2]: no binding (tested: 2e-6 M (last point visible))
